The data set concerns the molecule itself. The data set is described as follows: SEC. (In general: SEC sorts molecules by how far they enter the pores of the column.)

B1: RIG-I-TD (RIG-I triple deamidation mutant) (natural protein)
chain: MTTEQRRSLEAFQDYIRKTLDPTYILSYMAPWFREEEVQYIQAEKNNKGPMEAATLFLKFLLELQEEGWFRGFLDALDHAGYSGLYEAIESWDFKKIEKLEEYRLLLKRLQPEFKTRIIPTDIISDLSECLINQECEEILQICSTKGMMAGAEKLVECLLRSDKENWPKTLKLALEKERNKFSELWIVEKGIKDVETEDLEDKMETSDIQIFYQEDPECQNLSENSCPPSEVSDTNLYSPFKPRDYQLELALPAMKGKNTIICAPTGCGKTFVSLLICEHHLKKFPQGQKGKVVFFANQIPVYEQQKSVFSKYFERHGYRVTGISGATAENVPVEQIVENNDIIILTPQILVNNLKKGTIPSLSIFTLMIFDECHNTSKQHPYNMIMFNYLDQKLGGSSGPLPQVIGLTASVGVGDAKNTDEALDYICKLCASLDASVIATVKHDLEELEQVVYKPQKFFRKVESRISDKFKYIIAQLMRDTESLAKRICKDLENLSQIQNREFGTQKYEQWIVTVQKACMVFQMPDKDEESRICKALFLYTSHLRKYNDALIISEHARMKDALDYLKDFFSNVRAAGFDEIEQDLTQRFEEKLQELESVSRDPSNENPKLEDLCFILQEEYHLNPETITILFVKTRALVDALKNWIEGNPKLSFLKPGILTGRGKTNQNTGMTLPAQKCILDAFKASGDHNILIATSVADEGIDIAQCNLVILYEYVGNVIKMIQTRGRGRARGSKCFLLTSNAGVIEKEQINMYKEKMMNDSILRLQTWDEAVFREKILHIQTHEKFIRDSQEKPKPVPDKENKKLLCRKCKALACYTADVRVIEECHYTVLGDAFKECFVSRPHPKPKQFSSFEKRAKIFCARQNCSHDWGIHVKYKTFEIPVIKIESFVVEDIATGVQTLYSKWKDFHFEKIPFDPAEMSK
As for B1, the binding result is listed as “binds”.

For the origin of these results see publication PMC4385502 (Molecular cell, 2015).
